Experimental data published in publication PMC10127204, “Unique Initiation and Termination Mechanisms Involved in the Biosynthesis of a Hybrid Polyketide-Nonribosomal Peptide Lyngbyapeptin B Produced by the Marine Cyanobacterium Moorena bouillonii” (ACS Chemical Biology, 2023).

How the values were obtained:
Format in all cases: biochemical, Moorena bouillonii
Conditions in all cases: Fe2+ and molecular oxygen required
[1] = substrate: O=C(O)[C@@H]1CSC(c2ccccc2)=N1; test: kinetic analysis of 2-phenylthiazole formation
[2] = substrate: CC1=N[C@@H](C(=O)O)CS1; test: kinetic analysis of 2-methylthiazole formation
[3] = substrate: CC1=N[C@H](C(=O)O)CS1; test: kinetic analysis of 2-methylthiazole formation

B1: LynB7 (Moorena bouillonii) (protein)
chain: MVKTYEIIDADSHVLEPLDLWEKYLEPEFKHFAPKEDYKLEGEPILYKFNPSDFVESEAAKRAQEDPDIYKGGYDPKARVELMEQMGSDMTFLYPTIGLWMWSVDTMDSKLAGAFVRSYNNWLHDFCNYAPQKLKGIGAINQHDPEEMVPELQRIVEFGWKAVFIRPNPVKGRILSDPVYEPFWSECERLNVAVTVHEGTHSRLPTTGADRFDSRFALHACSHPMEQMMALLALIEGGVLERHPQLRVGFFESGCGWLPYWLWRLDEEYENLYYEVKDNVKMKPSEYFHRQCYTGFEVDEPYLAELIEYIGADKLLFGSDFPHMDHPNFIESVDETLALREKLPEDVIKKILHDNPLRYYGLT
- Km [1]: 1500 ± 300 µM
- kcat [1]: 11 ± 0.5 s^–1
- Km [2]: 3600 ± 700 µM
- kcat [2]: 1.3 ± 0.1 s^–1
- Km [3]: 2100 ± 200 µM
- kcat [3]: 17 ± 0.7 s^–1
